From patent publication US20070254830A1 (UNIVERSITY OF TOKYO, published 2007)

Target: T1, Myc/His-tagged C20orf20 (Homo sapiens (Human), UniProt Q9NV56 1-204)
T1 construct: Expressed in transfected COS7, SW480, HEK293 or HEK293F cells from pcDNA3.1Myc/His-C20orf20; also called myc-tagged C20orf20; pcDNA3.1Myc/His-C20orf20; not shown: Myc/His tag from the pcDNA3.1Myc/His vector
Experiment: reciprocal co-immunoprecipitation (anti-HA IP / anti-myc blot and anti-myc IP / anti-HA blot) from co-transfected COS7 cells
Procedure: The entire coding region of p120 was amplified by RT-PCR and cloned into pCAGGS-HA vector. The primer sequences used for the amplification were 5′-[…]-3′ (SEQ ID NO.5) and 5′-[…]-3′ (SEQ ID NO.6). We transfected COS7 cells with pcDNA3.1Myc/His-C20orf20, pCAGGS-HA-p120 or their combination, and performed immunoprecipitation assay using anti-Myc or anti-HA antibody. Cells were washed with PBS and lysed in TNE buffer containing 150 mM NaCl, 0.5% NP40, 10 mM Tris-HCl (pH7.8), supplemented with a Protease Inhibitor Cocktail 3 (Roche). In a typical immunoprecipitation reaction, 400 μg of whole-cell extract was incubated with 1 μg of anti-Myc (Santa Cruz) or anti-HA antibody (Roche), and 20 μl of protein G Sepharose beads (Zymed) at 4° C. for 2 hr. Beads were washed four times in 1 ml of TNE buffer and proteins bound to the beads were eluted by boiling in Laemmli sample buffer. The precipitated protein was separated by SDS-PAGE and immunoblot analysis was carried out using with either rat anti-HA antibody or mouse anti-Myc antibody, respectively.

T1 sequence (Q9NV56 whole entry): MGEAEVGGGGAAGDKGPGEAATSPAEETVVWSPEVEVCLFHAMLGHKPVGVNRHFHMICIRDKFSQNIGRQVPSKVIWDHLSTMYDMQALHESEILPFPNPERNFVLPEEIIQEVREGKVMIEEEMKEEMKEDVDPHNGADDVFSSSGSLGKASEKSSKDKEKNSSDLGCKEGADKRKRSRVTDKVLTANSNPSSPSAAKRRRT

- binding result: binds
B1: HA-tagged p120 (other)
chain: MRSGDQNWVSVSRAIKPFAEPGRPPDWFSQKHCASQYSELLETTETPKRKRGEKGEVVETVEDVIVRKLTAERVEELKKVIKETQERYRRLKRDAELIQAGHMDSRLDELCNDIATKKKLEEEEAEVKRKATDAAYQARQAVKTPPRRLPTVMVRSPIDSASPGGDYPLGDLTPTTMEEATSGVTPGTLPSTPVTSFPGIPDTLPPGSAPLEAPMTPVTDDSPQKKMLGQKATPPPSPLLSELLKKGSLLPTSPRLVNESEMAVASGHLNSTGVLLEVGGVLPMIHGGEIQQTPNTVAASPAASGAPTLSRLLEAGPTQFTTPLASFTTVASEPPVKLVPPPVESVSHATIVMMPALPAPSSAPAVSTTESVAPVSQPDNCVPMEAVGDPHTVTVSMDSSEISMIINSIKEECFRSGVAEAPVGSKAPSIDGKEELDLAEKMDIAVSYTGEELDFETVGDIIAIIEDKVDDHPEVLDVAAVEAALSFCEENDDPQSLPGPWEHPIQQERDKPVPLPAPEMTVKQERLDFEETENKGIHELVDIREPSAEIKVEPAEPEPVISGAEIVAGVVPATSMEPPELRSQDLDEELGSTAAGEIVEADVAIGKGDETPLTNVKTEASPESMLSPSHGSNPIEDPLEAETQHKFEMSDSLKEESGTIFGSQIKDAPGEDEEEDGVSEAASLEEPKEEDQGEGYLSEMDNEPPVSESDDGFSIHNATLQSHTLADSIPSSPASSQFSVCSEDQEAIQAQKIWKKAIMLVWRAAANHRYANVFLQPVTDDIAPGYHSIVQRPMDLSTIKKNIENGLIRSTAEFQRDIMLMFQNAVMYNSSDHDVYHMAVEMQRDVLEQIQQFLATQLIMQTSESGISAKSLRGRDSTRKQDASEKDSVPMGSPAFLLSLFDGGTRGRRCAIEADMKMKK
notes: expressed in transfected COS7, SW480, HEK293 or HEK293F cells; also called SMAP; not shown: HA tag from the pCAGGS-HA vector
